In US20140161875A1 (KATHOLIEKE UNIVERSITEIT LEUVEN, published 2014):
Blank lines part the entries; values can stand above or below the binder they belong to.

What was measured:
[1] = molecular target: T1, recombinant HIS-tagged tau obtained from E. coli (UniProt P10636-8 1-441, limits assumed); assay: Western blot
T1 construct: also called E. coli-produced recombinant tau; recombinant non-phosphorylated tau purified from bacteria
Excerpt: FIG. 2: Selectivity for tau aggregates and phosphorylation dependency of anti-tau mAbs of the invention. A) Western blot analysis of recombinant HIS-tagged tau obtained from E. coli and protein extracts obtained from control and humanized yeast strains using the commercial pan-tau antibody Tau-5 and ADx210 mAb as indicated. The number between brackets refers to the exposure time. The solid bar refers to high molecular weight and oligomeric tau and the small arrow in the picture of ADx210 to a presumable tau dimer. B) Western blot analysis of purified tau obtained from the pho85Δ strain before and after treatment with shrimp alkaline phosphatase (SAP) following different time intervals as indicated. Recombinant HIS-tagged tau obtained from E. coli served as control. The pan-tau antibody Tau-5, the phosphorylation-specific antibody AT270, and the antibody BT2 recognizing non-phosphorylated tau, were used in addition to the novel mAbs ADx215 and ADx210.
The phosphorylation specificity was initially tested on extracts obtained from the humanized wild type yeast strain and its congenic mds1Δ and pho85Δ mutants that display reduced and increased tau phosphorylation. Recombinant tau produced by E. coli served as control.

endogenous mouse tau = endogenous mouse tau (mouse, UniProt P10637-2 2-430, limits assumed); assay: Western blot of mouse brain extracts
Chain of endogenous mouse tau (P10637 other isoform, or with tags, fused parts or gaps limits assumed): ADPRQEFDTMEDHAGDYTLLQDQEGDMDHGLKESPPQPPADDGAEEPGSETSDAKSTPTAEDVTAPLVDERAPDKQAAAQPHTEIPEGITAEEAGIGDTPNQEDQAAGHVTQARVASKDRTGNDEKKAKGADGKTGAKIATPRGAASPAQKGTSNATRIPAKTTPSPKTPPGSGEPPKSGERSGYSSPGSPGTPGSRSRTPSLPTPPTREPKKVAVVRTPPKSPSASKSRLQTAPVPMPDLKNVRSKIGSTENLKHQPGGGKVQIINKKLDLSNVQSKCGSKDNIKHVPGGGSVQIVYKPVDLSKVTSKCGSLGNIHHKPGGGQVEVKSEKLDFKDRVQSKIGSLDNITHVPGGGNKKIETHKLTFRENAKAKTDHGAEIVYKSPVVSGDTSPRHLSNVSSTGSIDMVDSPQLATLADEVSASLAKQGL
Excerpt: FIG. 3: Analysis of the novel mAbs on samples of transgenic mice and human brain. A) Western blot analysis of brain extracts from control mice (FVB), knock-out mice and transgenic (Tg) mice expressing a clinical mutant of human tau (Tau-P301L). The age of the mice is indicated between brackets. The arrow on the second blot indicates high molecular weight tau complexes. The antibodies used are ADx215 (YT1.15), ADx210 (YT1.10) and the commercial phosphorylation-specific antibody AT100 (exposure time of 30 min for ADx210 (YT1.10) and AT100, and 30 sec for ADx215 (YT1.15)). B) Tau epitope sequence recognized by ADx201 (YT1.1) and ADx215 (YT1.15). C) Western blot analysis of brain extracts from brain extracts obtained from a healthy person (non-AD) and an AD patient using the Mab ADx215 (YT1.15) (exposure time 2 min.). The brain regions from which the extracts were prepared are indicated. As control served brain extracts obtained from the hippocampus and cortex of the tau Tg mice Tau22. The arrow indicates high molecular weight tau complexes present in samples from AD brain. […]
Furthermore, the high affinity Mab ADx215 (YT1.15) specifically detected high molecular weight tau complexes in brain extracts of both Tg mice (Fig. A, C) and a late stage AD patient (data provided by L. Buée, Inserm U837, U. Lille, France; Fig. C).

binding result [1]: no binding | binding result (endogenous mouse tau): no binding
B1: ADx210 monoclonal antibody (hybridoma LMBP 8347CB) (antibody, V domains shown)
VH: VQLQESGGGLVQPGGSRKLSCAASGFTFSNFGMHWVRQAPDKGLEWVAYITSGSSSIYYADTVKGRFTISRDNPKNTLFLQMTSLRSEDTAMYYCARSVPYGYGLFDYWGRGTTLTVSS
VL: DVLMTQIPVSLSVSLGDQASISCRSSESIVHSSGKTYLEWYLQKPGQSPKLLIYEVSNRFSGVPDRFSGSGSGTDFTLKISRVEAEDLGVYYCFQGSHVPWTFGGGTKLEIKR
notes: Mouse hybridoma mAb (BALB/C immunised with yeast-purified tau); constant regions are not; also called YT1.10; IGH-593

binding result (endogenous mouse tau): no binding
B2: ADx215 monoclonal antibody (hybridoma LMBP 9679CB) (antibody, IgG1, V domains shown)
VH: EVQLVESGGDLVKPGGSLKLSCAASGFNFRSYGMSWVRQTPDKRLEWVATISSGGNYTYYPDSVKGRFTISRDNAKNILYLQMSSLNSEDTALYYCTYSFYGAFDYWGQGTTLTVSS
VL: DVLMTQTPLSLPVSLGDQASISCRSSQNILHSNGNTYLEWYLQKPGQSPKLLIYKVSSRFSGVPDRFSGSGSGTDFTLKITRVEAEDLGVYYCFQGSLVPWTFGGGTKLEIRR
notes: also called YT1.15
